PMC4753514

Experiments:
[1] = target: Ecad-Fc (recombinant human epithelial cadherin fused with IgG-Fc)
[2] = target: ProG-TGT (Protein G fragment, amino acids 190-384, conjugated to a double-stranded DNA tension gauge tether with biotin) (UniProt P19909); test: micro-ring resonator; 200 ug/ml neutravidin, 0.05 uM ProG-TGT and 50 ug/ml Ecad-Fc flowed successively over a polymer-passivated surface presenting biotin; ProG-TGT held through biotin:neutravidin; film thickness read out

Row | Substance | surface density of adhered DLD-1 cells on the ProG-TGT (43 pN) surface with Ecad-Fc (control surface without Ecad-Fc: 8/mm^2) [1] | film thickness increase [2] [pm] | stoichiometry N (Ecad-Fc per ProG-TGT (molar ratio)) [2]
1 | E-cadherin on DLD-1 cells (from UniProt P12830 155-882) (receptor) | 386 /mm^2 | – | –
2 | Ecad-Fc (recombinant human epithelial cadherin fused with IgG-Fc) (Fc fusion) | – | 237 | 0.87
